US20150351390A1, “COMPOSITIONS AND METHODS FOR AUXIN-ANALOG CONJUGATION” (PIONEER HI-BRED INTERNATIONAL, INC., priority 2012, published 2015)

B1: VvGH3-4: GH3 protein, accession XP_002263353 (protein, listed as Vitis vinifera)
chain: MEGKRLEYRGEEALKELEKFTAKADEVQENILKEIIARNCETEYLKKYMGGSKDVLEFKQSVPVITYKDIHPYIQRIANGEDSSLISGHPITEMLCSSGTSGGEPKMMPSIAEDLNRRTFLYNLIMPIMNQYIPGLDEGKAMFLYFVKAEMSTPCGLPARAVLTSYYKSKNFRCRVRDAFNDFTSPDQAILCTDSNQSMYCQLLAGLVHRHQVLRLGAVFASALLRAISFLERHWVHLCNDIRTGHLDSSITDPECRSSMSTILSSPNPHLADEIEEICSHPSWKGMLSQLWPRAKYIEAVITGSMAQYIPSLEYYSGGKLPLVCTMYASSECYFGVNMKPLCDPADVAFTLLPNMCYFEFIPLGENGTLLMDMDEEKGVPKEKLVDLVHVRLGCYYELVVTTFAGLNRYRIGDVLQVTGFHNRAPQFRFICRRNVVLSIDNDKTNEEDLHRSITMAKKLLEPYNALLVEYTSYADTSSLPGHYVLYWEITHCISTDSPSTPLDSKVLEECCIAVEEELDYIYRRCRTHDKSVGPLEIRLVQPGTFEDLMDLFISQGGSINQYKTPRCIKSSNALKLLNSNVEASFFSPRDPRWIP
B2: OsGH3-1: GH3 protein, accession Q8LQM5 (protein, listed as Oryza sativa)
chain: MPEAPTAKTAPAYGYAPGAHAEALEFIEHVTANAGQVQRRVLGEILAQNAPAEYLRRYGIPGSPDVVDAFRRLVPLVTYEGLQPDILRIANGDTSPIFSGKPISEFLTSSGTSGGERKLMPTIADEMNRRSLLYSLLMPVMSQSVSGLDKGKAMYLLFVKAESRTPGGLAARPVLTSYYRSRQFLDRPRDPYTSYTSPDEAILCVDSYQSMYAQLLCGLVHRADVLRVGAVFASGFLRAIHFLEKHWARLCHDIRTGELDPEITDRVVRDAVGRVLRADPALADAIEDECARASWEGIIRRLWPRTKYIDVIVTGTMSQYIPTLEFYGGGLPLTCTMYASSECYFGLNLNPMCKPSDVAYTLIPTMCYYEFLPVNCNNATAEASHRDLVDLVDVKLGHEYELVVTTYSGLYRYRVGDVLRVAGFKNKAPMFSFVRRQNVALSVDSDKTDETELHAAVSGAVQHLAPFGASLVEYTSYADAATIPGHYVLFWELRAGSTAVPASVFEECCLSVEEALNSVYRQGRACDRSIGPLEIRVVAEGTFDKLMDYAISRGASINQYKAPRCVRPGPVVELLDARVQGKYFSPKCPKWSPGNKQWNKSKDLVGKGDA
B3: OsGH3-6: GH3 protein, accession Q60EY1 (protein, listed as Oryza sativa)
chain: MAATAWGIRSSGIRGASPVMSACVSPAEVILGADHQQQMYCHLLCGLRRWDAVDCIRAPYAAALARALRLLQSKWRQLCDDLECGTVCADVVTDAAMRGAVQDGVLAGPCPELAGRVRRICERDDWRGVLRQLWPDARYISCVTTGTMEQYFPAIKHFAGEALPVLGTDYLASECAIGINLERTSPPEETTYVLLPRAAYFEFIPFDMDAAGRGAAAAEPVDIAGVEAGKTYELVATTFRGLYRYKVGDVVKIAGFHHSSPRLQFVTRAPPPQEHGEVLTERDVMAAMDTFQLMLKDGGEVIEFAAFIIDGDGGQRRRRCATIAVEVSNGSKLLDHERSAAFLRRCTAPLEGCLGGAYRLSRATGDVAPLEVAVVRPGTFDRLAEAAIRGGAPANQYKPPRSSGTGTSSMCCNPPWCAAAAQSLNQLLTSICLIVSLNQRQFLDRESNSGTDKVFISDSILNFQHWGGFSLRFDLQEESLTLYKDHPS
B4: AIGH3-12 (protein, listed as Arabidopsis lyrata)
chain: MKPISDINESFEKQLKYLTSDVKQIQDNLLEEIITPNTKTEYLQRFLIGRFDKDLFKKNVPIVTYEDIKPYLDRVVNGESSDVISARPITGFLLSSGTSGGAQKMMPWNNKYLDNLTFIYDLRMQVITKHVKGVEEGKGMMFLFTKQESMTPSGLPARVATSSYFKSDYFKHRPSNWYYSYTSPDEVILCPNNTQSLYCHLLCGLVQRDEVVRTGSIFASVMVRAIEVLKNSWEELCSNIRSGHLSNWVTDLGCQSSVSLVLGGPRPELADTIEEICNQKSWKGIVKRLWPNTKYIETVVTGSMGQYVPMLNYYCNDLPLVSTTYGSSETTFGINLDPLCKPEDVSYTFMPNMSYFEFIPMDGDNNDVVDLEDVKLGCTYEPVVTNFAGLYRMRVGDIVLVTGFYNNAPQFKFVRRENVVLSIDSDKTNEEDLFKAVSQAKLVLESSGLDLKDFTSYADTSTFPGHYVVYLEVDTKEGEEKKTAQFELDEEALSMCCLVMEESLDNVYKRCRFKDGSIGPLEIRVVRQGTFISLMDFFISQGASTGQYKTPRCIKSGKALQVLETCVVAKFFSS
B5: AtGH3-15: GH3 protein, accession CAB87144 (protein, listed as Arabidopsis thaliana)
chain: MLPKFDPTNQKACLSLLEDLTTNVKQIQDSVLEAILSRNAQTEYLRGFLNGQVDKQNFKKNVPVVTYEDIRSYIDRIANGEPSDLICDRPISVLLTSSGTSGGVPKLIPLTTEDLEQRISFSSLYAPLLYKHIDGLSEGKSLIFYFVTRESKTANGDSLQVSPHAITTCADTTQSMYCQLLCGLLERDNVARLGAPFASSFLKVIKFLEDHWPELCSNIRTGRLSDWITDATCTSGIGKFLTAPNPELASLIEQECSKTSWEAILKRLWPKAKCIESIITGTMAQYIPLLEFYSGGLPLTSSFYGSSECFMGVNFNPLCKPSDVSYTIIPCMGYFEFLEVEKDHQEAGHDPTEKPVVVDLVDVKIGHDYEPVVTTFSGLYRYRVGDVLRATGFYNNAPHFCFVGRQKVVLSIDMDKTYEDDLLKAVTNAKLLLEPHDLMLMDFTSRVDSSSFPGHYVIYWELGSKVKDAKFEPNRDVMEECCFTVEESLDAVYRKGRKNDKNIGPLEIKVVKPGAFDELMNFFLSRGSSVSQYKTPRSVTNEEALKILEANVISEFLSRKIPSWELHELHSGR
B6: SbEES08587: GH3 protein, accession EES08587 (protein)
chain: MSTSPAVLDHDHGHHRLLSSVSPPTTTTDSPATAMPPRAPSSLPPTIPACDPHDGPASLQLIEDLTTHAGAIQQRVLREILAMNAGTDYLRGFLGAGAEGRDADELAATFKDRVPVVEYEDVKPYIERIANGAPSSLISSKTITELLTSSGTSGGQPKLMPSTEEELDRKTFLYNLLVPVMNKYVEGLDKGRCMYLLFVKPEITTASGLVARPVLTSYYKSRHFRERPDSPYTRYTSPNEAILCPDSAQSMYAQLLCGLARRGEVLRVGAVFASAFLRAVKFLEAHWRALCDDIRAGRVDASRVTDAACRDAVARVVARPDPALADAIAAECEGSSSSSWRGIVRRLWPRTKYIDVIVTGSMAQYIPLLEFYGGGLPLVSTMYASSECYFGINLRPLDPPEDVAYTLLPNMCYYEFIKVEKDGEEAREDGKVVDLVDVEAGGYYELLVTTFTGLYRYRVGDILQVSGFHNAAPQFRFVHRRNVVLSVDTDKTSEDDLLRAVTAAKRLLAPLGGATILSEYTAYADTASIPGHYVLFWELTPTPPMPGDGDTAARVMAACCAEVEAGLDAVYQRCRSRDRSVGPLEIRVVSTGAFDALMDLCVSHGSSVNQYKTPRCIKHPDAIAVLEARVVGRFFSDTVPHWEPFNVVDTAAAGAAATTTPSLNEGAT
modifications: Sorghum bicolor
B7: AIGH3-7 (protein, listed as Arabidopsis lyrata)
chain: VLEDLTSNVTQLQDNEILTLNANTNYLQSFFRGRFDKEIFKKNVPVVTYDDPSNVISAQPITGFVLSSGTSGGAQKMMPWNEKYLDSCMIFGCINVKNVEKGKAMMFYFTKLESITPSGLPARVASSSYLKSNYFKNRPSNWYYTYTSPDELTLCPDNKQNLYCHLLCGLVQRNEVTRMGSIFASVMKELWSNIRSGQLSEWITDIVANTIEKICNQKCWKGIVTRLWPKAKYIETIVTGSMVQYVPTLNYYSNDMLPLISTIYASSETQFGLNLNPMCKPEDVSYTFMPNVSYFEFIPVDGDKNNVVDLADVKLGCSYEAVVTNFRIRVGDILVVTGFHNKAPQFRFIRRDNVVLSIDLDKTNEDDLFKAVNRGKLTLDSSDLMLAMLISPLSRDKNKDKKSKKHIELKQETFSECCLLMEDSLDEVYKNCRFKEEWTFDSLMDFFISQGASIGQYKTPRCIKSAKALEVIEKMW
B8: VvGH3-6: GH3 protein, accession XP_002268278 (protein, listed as Vitis vinifera)
chain: MLLSCDPHDNEAGLMLLEDLTTNANQVQLEVLEEILTQNANTEYLRGYLDGHSDKGLFKKKVPIVNYEDIKPHIERIANGEPSRIISAQPITELLTSSGTSGGQPKLMPSTAEDLDRKTFFYNLLIPVMNKYVDGLDQGKGMYLLFIKPEISTPSGLMARPVLTSYYKSSNFRNRPFNPFNVYTSPDETILCLDSKQSMYCQLLCGLVQRDEVLRVGAVFASAFLRAIKFLEDHWRELCSNIRTGCVSDWITDPSCRNAVSSFLSKPQPDLADFIEFECNGESWEGIIKRLWPRTKYIEVIVTGSMAQYIPTLEFYSGGLPLVSTMYASSECYYGINLKPLSKPSDVSYTLLPNMAYFEFLPVQKNNGEVTQQVQCNGGCIKKEGERVEIEVVGLVDVKVGHYYELVVTTFTGLYRYRTGDILMVTGFYNNAPQFRFVQRRNVVLSIDTDKTNEEDLLKAVTQAKLLLEPYGFLLTEYTSYADTSSIPGHYVLFWELKTRGNNDLSEPDHTIMEQCCSTVEESLDSVYRRCRRRDNSIGPLEIRIVKPGTFDALMDFCVSQGSSVNQYKTPRCIKSKEAIKILDSRVVGKVFSKKVPFWEPFKMETK

How the values were obtained:
[1] = LC-MS assay of GH3 conjugation of IAA with Asp or Glu; format: biochemical; settings: for kcat (hrs−1) IAA-Asp: conjugation of IAA with Asp by recombinant GH3 protein, IAA-Asp product by LC-MS; for kcat (hrs−1) IAA-Glu: conjugation of IAA with Glu by recombinant GH3 protein, IAA-Glu product by LC-MS
Outline: (§1)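 Rxn: 20 mM Tris-HCl pH 8.0, 5 mM MgCl2, 1 mM DTT, 5 mM ATP, 5 mM auxin, 5 mM Asp/Glu, 44–164 μg/mL purified His-GH3; 30° C., 3 h. MeOH quench, supernatant diluted 20×, LC-MS vs conjugate standards.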

[2] = LC-MS assay of GH3 conjugation of 2,4-D with Asp or Glu; format: biochemical; settings: 5 mM 2,4-D substrate; for kcat (hrs−1) 2,4-D-Asp: conjugation of 2,4-D with Asp by recombinant GH3 protein, 2,4-D-Asp product by LC-MS; for kcat (hrs−1) 2,4-D-Glu: conjugation of 2,4-D with Glu by recombinant GH3 protein, 2,4-D-Glu product by LC-MS
Outline: as §1

Row | Molecule | kcat (hrs−1) IAA-Asp [1] [h⁻¹] | kcat (hrs−1) IAA-Glu [1] [h⁻¹] | kcat (hrs−1) 2,4-D-Asp [2] [h⁻¹] | kcat (hrs−1) 2,4-D-Glu [2] [h⁻¹]
1 | B1 | 3.873 | 16.309 | 0.000 | 0.018
2 | B2 | 633.605 | 33.412 | 0.937 | 0.207
3 | B3 | 0.000 | 0.000 | 0.000 | 0.000
4 | B4 | 0.000 | 12.925 | 0.006 | 0.057
5 | B5 | 0.000 | 0.000 | 0.000 | 0.000
6 | B6 | 10.251 | 389.161 | 0.044 | 0.554
7 | B7 | 0.000 | 0.000 | 0.000 | 0.000
8 | B8 | 111.443 | 505.272 | 0.385 | 1.204
